The RNAGym collection of RNA variant scans (doi:10.7554/elife.90254)

B1: OR4K15 (parent)
chain: GUUAACGGUCAUAGGCCAUGGAAACUAGGAGCACCAUUUCGCUGCCAGUGAAGAAAUGAACAAAGAAAAUCUGGGCCAGGCAGGCAUCAAAAGAAAUAGUCUUGCGCUCAACCAGAAAGUCUGUAAUCAUUUUAAGGGUA

Variants of: B1
Assay: self-cleavage, relative activity (ratio to wild type); higher = more cleavage; in vitro, sequencing; the parent is a self-cleaving ribozyme

Question: For G21A U127C, which self-cleavage is on record?
Answer: The self-cleavage was 1.32.

Question: With U19C U39A as the variant, how does the self-cleavage read?
Answer: Its self-cleavage is 2.15.

Question: With U39C A89C as the variant, how does the self-cleavage read?
Answer: Its self-cleavage is 1.38.

Question: Which self-cleavage does the source give for U49A A118U here?
Answer: Its self-cleavage is 0.7.

Question: For A52G U139G, which self-cleavage is on record?
Answer: Its self-cleavage is 1.6.

Question: For U19G A110G, which self-cleavage is on record?
Answer: The self-cleavage was 0.2.

Question: With A18G A22G as the variant, how does the self-cleavage read?
Answer: The self-cleavage was 1.01.

Question: With A22C A89C as the variant, how does the self-cleavage read?
Answer: The self-cleavage was 1.57.

Question: Which self-cleavage does the source give for U2A A54G here?
Answer: The self-cleavage was 0.63.

Question: Which self-cleavage does the source give for A27G A66G here?
Answer: The self-cleavage was 0.7.

Question: For A5U U70A, which self-cleavage is on record?
Answer: Its self-cleavage is 1.23.

Question: Which self-cleavage does the source give for C6U U120C here?
Answer: The self-cleavage was 0.33.

Question: For A23U U97G, which self-cleavage is on record?
Answer: The self-cleavage was 1.35.

Question: Which self-cleavage does the source give for A27U U43G here?
Answer: Its self-cleavage is 1.64.

Question: Which self-cleavage does the source give for G50U U124A here?
Answer: Its self-cleavage is 0.91.

Question: For A98U U102C, which self-cleavage is on record?
Answer: Its self-cleavage is 2.78.

Question: For A18G G53U, which self-cleavage is on record?
Answer: The self-cleavage was 1.66.

Question: For U70A A110G, which self-cleavage is on record?
Answer: Its self-cleavage is 0.1.

Question: For U97A U103C, which self-cleavage is on record?
Answer: The self-cleavage was 1.63.

Question: With U38C A95G as the variant, how does the self-cleavage read?
Answer: Its self-cleavage is 1.58.

Question: Which self-cleavage does the source give for U102A A116G here?
Answer: Its self-cleavage is 0.18.

Question: With U9C A36G as the variant, how does the self-cleavage read?
Answer: Its self-cleavage is 0.96.

Question: With G31U A92G as the variant, how does the self-cleavage read?
Answer: Its self-cleavage is 1.27.

Question: Which self-cleavage does the source give for C88U A95G here?
Answer: The self-cleavage was 2.12.

Question: For U2C U72A, which self-cleavage is on record?
Answer: The self-cleavage was 0.1.

Question: For A69G C101U, which self-cleavage is on record?
Answer: Its self-cleavage is 0.26.

Question: With A33U A114U as the variant, how does the self-cleavage read?
Answer: The self-cleavage was 0.08.

Question: For A33U C77A, which self-cleavage is on record?
Answer: Its self-cleavage is 1.

Question: With A63G A67U as the variant, how does the self-cleavage read?
Answer: Its self-cleavage is 1.45.

Question: With A63U U87A as the variant, how does the self-cleavage read?
Answer: Its self-cleavage is 1.18.

Question: With A24G A27G as the variant, how does the self-cleavage read?
Answer: The self-cleavage was 0.97.

Question: For U102A A118G, which self-cleavage is on record?
Answer: Its self-cleavage is 0.84.

Question: For A23C C76A, which self-cleavage is on record?
Answer: Its self-cleavage is 0.13.

Question: For U43C A140G, which self-cleavage is on record?
Answer: The self-cleavage was 1.95.

Question: For A36G C76U, which self-cleavage is on record?
Answer: Its self-cleavage is 0.12.

Question: For A62G U122G, which self-cleavage is on record?
Answer: The self-cleavage was 2.99.

Question: With A78U A110C as the variant, how does the self-cleavage read?
Answer: Its self-cleavage is 0.05.

Question: With U3A G74A as the variant, how does the self-cleavage read?
Answer: Its self-cleavage is 0.39.

Question: For U9C A47G, which self-cleavage is on record?
Answer: Its self-cleavage is 1.08.

Question: Which self-cleavage does the source give for A94G C107G here?
Answer: Its self-cleavage is 0.01.

Question: With A36G A82U as the variant, how does the self-cleavage read?
Answer: Its self-cleavage is 0.1.

Question: With A24G C128U as the variant, how does the self-cleavage read?
Answer: The self-cleavage was 0.76.

Question: With A82G A91U as the variant, how does the self-cleavage read?
Answer: Its self-cleavage is 0.59.

Question: For A60U U124C, which self-cleavage is on record?
Answer: Its self-cleavage is 0.94.

Question: With C35U U122C as the variant, how does the self-cleavage read?
Answer: Its self-cleavage is 1.07.

Question: With U49A A89G as the variant, how does the self-cleavage read?
Answer: Its self-cleavage is 0.47.

Question: Which self-cleavage does the source give for A47C A67G here?
Answer: Its self-cleavage is 0.84.

Question: Which self-cleavage does the source give for A90C U120A here?
Answer: The self-cleavage was 1.88.

Question: With A22U A78U as the variant, how does the self-cleavage read?
Answer: The self-cleavage was 0.33.

Question: For A69G U120C, which self-cleavage is on record?
Answer: The self-cleavage was 0.98.

Question: With U108A U122C as the variant, how does the self-cleavage read?
Answer: The self-cleavage was 0.04.

Question: With U57C A68G as the variant, how does the self-cleavage read?
Answer: Its self-cleavage is 0.95.

Question: Which self-cleavage does the source give for A18U U72C here?
Answer: Its self-cleavage is 0.1.

Question: For A36G G123A, which self-cleavage is on record?
Answer: Its self-cleavage is 1.46.

Question: For A13U A47G, which self-cleavage is on record?
Answer: The self-cleavage was 0.93.

Question: Which self-cleavage does the source give for A62G A95U here?
Answer: Its self-cleavage is 2.

Question: Which self-cleavage does the source give for A30G A110G here?
Answer: Its self-cleavage is 0.15.

Question: For A82U A125G, which self-cleavage is on record?
Answer: The self-cleavage was 0.03.

Question: For U2C A36U, which self-cleavage is on record?
Answer: The self-cleavage was 1.11.

Question: For G15A U139C, which self-cleavage is on record?
Answer: The self-cleavage was 1.3.

Question: With A22U A90G as the variant, how does the self-cleavage read?
Answer: Its self-cleavage is 0.91.

Question: Which self-cleavage does the source give for A110C U132A here?
Answer: Its self-cleavage is 0.25.

Question: For A125G A140G, which self-cleavage is on record?
Answer: Its self-cleavage is 0.69.

Question: With U9C A96G as the variant, how does the self-cleavage read?
Answer: The self-cleavage was 1.35.

Question: For A90G A94U, which self-cleavage is on record?
Answer: The self-cleavage was 1.93.

Question: For A4G U39C, which self-cleavage is on record?
Answer: Its self-cleavage is 1.46.

Question: For C16U A111U, which self-cleavage is on record?
Answer: The self-cleavage was 0.16.

Question: With A47G C85U as the variant, how does the self-cleavage read?
Answer: The self-cleavage was 0.65.

Question: With A110G A114G as the variant, how does the self-cleavage read?
Answer: Its self-cleavage is 0.05.

Question: For A47C C105U, which self-cleavage is on record?
Answer: Its self-cleavage is 0.32.

Question: With A52G U133A as the variant, how does the self-cleavage read?
Answer: Its self-cleavage is 2.06.

Question: With G83A A89U as the variant, how does the self-cleavage read?
Answer: The self-cleavage was 1.82.

Question: For U26C U103C, which self-cleavage is on record?
Answer: The self-cleavage was 0.69.

Question: For A11U A56G, which self-cleavage is on record?
Answer: Its self-cleavage is 1.1.

Question: With A22U A36G as the variant, how does the self-cleavage read?
Answer: The self-cleavage was 1.48.

Question: Which self-cleavage does the source give for U133A here?
Answer: Its self-cleavage is 1.32.

Question: With A47G G74A as the variant, how does the self-cleavage read?
Answer: The self-cleavage was 0.21.

Question: Which self-cleavage does the source give for A69G C107U here?
Answer: Its self-cleavage is 0.03.

Question: With U43A U57C as the variant, how does the self-cleavage read?
Answer: The self-cleavage was 1.15.

Question: With A18U A86G as the variant, how does the self-cleavage read?
Answer: Its self-cleavage is 1.01.

Question: For A56G A66C, which self-cleavage is on record?
Answer: Its self-cleavage is 1.76.

Question: For U37C A47U, which self-cleavage is on record?
Answer: The self-cleavage was 0.63.

Question: With U12G U102C as the variant, how does the self-cleavage read?
Answer: The self-cleavage was 1.11.

Question: For U37C A86G, which self-cleavage is on record?
Answer: The self-cleavage was 1.47.
